Where a chain is given by its changes, count along the chain named. In names and notes the source's numbering stands. Values belong to the binder of their own block, whether it stands above or below them.
What was measured:
[1] = molecular target: T1, soluble murine CD25 (His-tagged recombinant mouse IL-2Rα/CD25, R&D Systems) (mouse, UniProt P01590 22-236, limits assumed); assay: yeast surface display, titration with soluble murine CD25
T1 construct: Bought reagent, described only as soluble and His-tagged; also called soluble CD25; mouse CD25
T1 sequence (looked up): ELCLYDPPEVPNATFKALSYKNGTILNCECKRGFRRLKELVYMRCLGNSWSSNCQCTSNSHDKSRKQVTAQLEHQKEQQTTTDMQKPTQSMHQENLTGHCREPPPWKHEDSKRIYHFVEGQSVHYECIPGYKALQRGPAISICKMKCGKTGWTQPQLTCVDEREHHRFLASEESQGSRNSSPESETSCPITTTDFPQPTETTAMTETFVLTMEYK
Description: The equilibrium dissociation constant of any particular clone was determined essentially as described (75). […] For picomolar affinity mutants of library 6.2, non-displaying EBY100 cells were spiked in at 90:10 to facilitate pelleting the low numbers of displaying cells. The equilibrium dissociation constant Kd was determined by fitting CD25 concentration and flow cytometry fluorescence data to the monovalent binding isotherm: […]

[2] = molecular target: T1, soluble murine CD25 (His-tagged …); assay: yeast surface display, flow cytometry
Description: EBY100 yeast harboring each of these clones were grown and induced as described (Chao et al. Nat Protocols 2006; 1(2):755-768). CD25 binding capacity was determined by labeling induced yeast with 50 nM soluble murine CD25 (R&D Systems). Proper protein folding was determined by labeling yeast displaying IL-2 variants before and after thermal denaturation with anti-mouse IL-2 antibodies. […] Anti-mouse IL-2 antibodies used were S4B6 (gift of Jianzhu Chen Lab, MIT), JES6-1A12, and JES6-5H4 (eBioscience).

[3] = molecular target: T1, soluble murine CD25 (His-tagged …); assay: not stated (legend of the schematic FIG. 5)

B1: mIL-2 QQ 6.2-11 (yeast-displayed) (ligand)
chain: APTSSSTSSSTAEAQQQQQQQQQHLEQLLMDLQELLSRMEDSRNLRLPRMLTFKFYLPEQATELKDLQCLEDELEPLRQVLDLTQSKSFQLEDAENFISNIRVTVVKLKGSDNTFECQFDDEPATVVDFLRRWIAFCQSIISTSPQ
notes: Selective-reversion mutant of a library 6.2 clone; also called reversion mutant
binding result [1]: binds

B3: wild-type murine IL-2 (yeast-displayed) (ligand)
chain: APTSSSTSSSTAEAQQQQQQQQQQQQHLEQLLMDLQELLSRMENYRNLKLPRMLTFKFYLPKQATELKDLQCLEDELGPLRHVLDLTQSKSFQLEDAENFISNIRVTVVKLKGSDNTFECQFDDESATVVDFLRRWIAFCQSIISTSPQ
notes: Aga2p fusion with HA and c-myc tags; also called mIL-2; mouse IL-2
binding result [2]: binds

B8: mouse IL-2 E76F (yeast-displayed) (ligand)
chain: B3 chain with E76F
notes: also called E76 mutant
binding result [2]: no binding (tested: 5 or 50 nM soluble CD25)

B9: mouse IL-2 E76R (yeast-displayed) (ligand)
chain: B3 chain with E76R
notes: also called E76 mutant
binding result [2]: no binding (tested: 5 or 50 nM soluble CD25)

B11: D265AFc/IL-2 (monovalent mouse IgG2a D265A Fc / wild-type mouse IL-2 heterodimer) (Fc fusion)
chain 1: EPRVPITQNPCPPLKECPPCAAPDLLGGPSVFIFPPKIKDVLMISLSPMVTCVVVAVSEDDPDVQISWFVNNVEVHTAQTQTHREDYNSTLRVVSALPIQHQDWMSGKEFKCKVNNRALPSPIEKTISKPRGPVRAPQVYVLPPPAEEMTKKEFSLTCMITGFLPAEIAVDWTSNGRTEQNYKNTATVLDSDGSYFMYSKLRVQKSTWERGSLFACSVVHEGLHNHLTTKTISRSLGKGGGSAPTSSSTSSSTAEAQQQQQQQQQQQQHLEQLLMDLQELLSRMENYRNLKLPRMLTFKFYLPKQATELKDLQCLEDELGPLRHVLDLTQSKSFQLEDAENFISNIRVTVVKLKGSDNTFECQFDDESATVVDFLRRWIAFCQSIISTSPQHHHHHH
chain 2: EPRVPITQNPCPPLKECPPCAAPDLLGGPSVFIFPPKIKDVLMISLSPMVTCVVVAVSEDDPDVQISWFVNNVEVHTAQTQTHREDYNSTLRVVSALPIQHQDWMSGKEFKCKVNNRALPSPIEKTISKPRGPVRAPQVYVLPPPAEEMTKKEFSLTCMITGFLPAEIAVDWTSNGRTEQNYKNTATVLDSDGSYFMYSKLRVQKSTWERGSLFACSVVHEGLHNHLTTKTISRSLGKGGGSDYKDDDDK
notes: also called D265A Fc/wt mIL-2
Kd [3]: ~50 nM

Second part, the binder after the results:

binding result [1]: binds
B2: mIL-2 QQ 6.2-8 (yeast-displayed) (ligand)
chain: APTSSSTSSSTAEAQQQQQQQQHLEQLLMDLQELLSRMEDHRNLRLPRMLTFKFYLPKQATELEDLQCLEDELEPLRQVLDLTQSKSFQLEDAENFISNIRVTVVKLKGSDNTFECQFDDEPATVVDFLRRWIAFCQSIISTSPR
notes: as for B1

binding result [2]: no binding (tested: 50 nM)
B4: mouse IL-2 E76A (yeast-displayed) (ligand)
chain: B3 chain with E76A
notes: also called E76A IL-2

binding result [1]: binds
B5: mIL-2 QQ 6.2-10 (yeast-displayed) (ligand)
chain: B3 chain with N44D, Y45H, K49R, K62E, K68E, G78E, H82Q, S126P
notes: also called reversion mutant

binding result [1]: binds
B6: mIL-2 QQ 6.2-13 (yeast-displayed) (ligand)
chain: B3 chain with N44D, Y45H, K49R, K62E, G78E, H82Q, S126P
notes: as for B1

binding result [1]: binds
B7: mIL-2 QQ 6.2-4 (yeast-displayed) (ligand)
chain: B3 chain with N44D, Y45S, K49R, K68E, G78E, H82Q, S126P, D131G
notes: as for B1

binding result [2]: no binding (tested: 50 nM)
B10: mouse IL-2 E76G (yeast-displayed) (ligand)
chain: B3 chain with E76G
notes: also called E76G IL-2

Source: patent US20150132254A1 (MIT, published 2015)
